From US20200397913A1, “AXL-SPECIFIC ANTIBODY-DRUG CONJUGATES FOR CANCER TREATMENT” (GENMAB A/S, priority 2015, published 2020)
Marks after values point to notes of the source that are not given here.

Experiments:
ES0195 tumors = experiment: Esophageal cancer PDX model ES0195; type: in vivo, BALB/c nude mice; settings: 20 mg/kg i.p. at day 0, 7 and 14
Description: Tumor fragments from donor mice bearing patient-derived esophageal xenografts (ES0195) were used for inoculation into BALB/c nude mice. Each mouse was inoculated subcutaneously at the right flank with one tumor fragment (2-3 mm in diameter) and tumors were allowed to grow until the tumor volume was about 150 mm^3. […] The antibodies and ADCs were dosed intravenously (i.v.) at 4 mg/kg at day of randomization (day 0) and day 7. Paclitaxel was dosed intra-peritoneally (i.p.) at 20 mg/kg at day 0, 7, and 14. Tumor volumes (mm^3) were monitored twice weekly and were calculated from caliper (PLEXX) measurements as: 0.52×(length)×(width)^2.

CV1664 tumors = experiment: Cervical cancer PDX model CV1664; type: in vivo, BALB/c nude mice
Description: Inoculation of tumor fragments into BALB/c nude mice and randomization was performed as described in Example 21.

A431 cells = experiment: Antibody-dependent cell-mediated cytotoxicity (51Cr release); type: cell-based, human; settings: concentrations up to 10 μg/mL
Description: The ability of anti-AXL antibodies to induce ADCC of A431 epidermoid carcinoma cells was determined as explained below. As effector cells, peripheral blood mononuclear cells from healthy volunteers (UMC Utrecht, The Netherlands) were used.
A431 cells were collected (5×10^6 cells) in culture medium (RPMI 1640 culture medium supplemented with 10% fetal calf serum (FSC)), to which 100 μCi ^51Cr (Chromium-51; Amersham Biosciences Europe GmbH, Roosendaal, The Netherlands) had been added, and the mixture was incubated in a 37° C. water bath for 1 hour (hr) while shaking. After washing of the cells (twice in PBS, 1200 rpm, 5 min), the cells were resuspended in RPMI1640/10% FSC and counted by trypan blue exclusion. Cells were diluted to a density of 1×10^5 cells/mL.
Peripheral blood mononuclear cells (healthy volunteers, UMC Utrecht, Utrecht, The Netherlands) were isolated from 45 mL of freshly drawn heparin blood by Ficoll (Bio Whittaker; lymphocyte separation medium, cat 17-829E) according to the manufacturer's instructions. After resuspension of cells in RPMI1640/10% FSC, cells were counted by trypan blue exclusion and diluted to a density of 1×10^7 cells/mL.
50 μl of ^51Cr-labeled targets cells were pipetted into 96-well plates, and 50 μl of antibody were added, diluted in RPMI1640/10% FSC (3-fold dilutions at final concentrations range 0.01-10 μg/mL). Cells were incubated (room temperature (RT), 15 min), and 50 μl effector cells were added, resulting in an effector to target ratio of 100:1 (for determination of maximal lysis, 100 μl 5% Triton-X100 was added instead of effector cells; for determination of spontaneous lysis, 50 μL target cells and 100 μL RPMI1640/10% FSC were used). Cells were incubated overnight at 37° C. and 5% CO2. After spinning down cells (1200 rpm, 10 min), 70 μL of supernatant was harvested into micronic tubes, and counted in a gamma counter. The percentage specific lysis was calculated as follows:
% specific lysis=(cpm sample−cpm target cells only)/(cpm maximal lysis−cpm target cells only),
wherein cpm is counts per minute.

[1] = system: MDA-MB-231 and Calu-1 cells; experiment: Internalization of cell surface bound HuMab-AXL by flow cytometry; type: cell-based, human; settings: 1 hour 4° C, then overnight 37° C versus 4° C
Description: Internalization of cell surface bound HuMab-AXL antibodies to MDA-MB-231 and Calu-1 cells (human lung carcinoma cell line; ATCC, catalognumber HTB-54) was evaluated by flow cytometry. 50,000 cells were seeded in 96-well tissue culture plates and allowed to attach for 6 hrs at 37° C. Plates were incubated at 4° C. for 30 minutes before incubation with serial dilutions of AXL-antibodies (final concentration range 0.0032-10 μg/mL) at 4° C. for 1 hour. Subsequently, the medium was replaced by tissue culture medium without antibody and cells were incubated overnight (16-18 hours) at 37° C. or 4° C. […] Finally, cells were washed twice in PBS/0.1% BSA/0.02% azide, resuspended in 120 μL PBS/0.1% BSA/0.02% azide and analyzed on a FACS Cantoll (BD Biosciences).
(§1) Binding curves were analyzed using non-linear regression (sigmoidal dose-response with variable slope) using GraphPad Prism V5.04 software (GraphPad Software, San Diego, Calif., USA).

SKMEL147 tumors = experiment: SKMEL147 melanoma xenograft model; type: in vivo, NMRI nude mice; settings: 4 mg/kg i.v. on day 12 and day 19 after tumor cell injection
[2] = target: T1, AXLECDHis (extracellular domain of human AXL) (Homo sapiens, UniProt P30530); experiment: Binding affinity by Bio-Layer Interferometry (Octet); settings: soluble AXLECDHis, 30° C, 1:1 model
T1 construct: the extracellular domain (ECD) of human AXL (aa 1-447) with a C-terminal His tag (AXLECDHis); His tag (C); made in house; host or cells: HEK-293F

human AXL = target: T2, human AXL (Homo sapiens, UniProt P30530); experiment: Flow cytometry binding to HEK293T cells transfected with full length human AXL; settings: at least 3 experiments
T2 construct: expression constructs for full length human AXL; expressed in transfected cells; host or cells: HEK293T

[3] = target: T3, human AXL with a cynomolgus monkey extracellular domain (ECD) (Homo sapiens, UniProt P30530, P441T/S191N/S285L/T105A/T112A/T125N/T443A); experiment: Flow cytometry binding to HEK293T cells transfected with human AXL with cynomolgus ECD; settings: at least 3 experiments
T3 construct: aa 1-447); expressed in transfected cells; host or cells: HEK293T

[4] = target: T4, human AXL with a mouse ECD (Mus musculus, UniProt Q00993, A791T/A867T/C878S/D603E/D853E/E609A/F637Y/G606S/G869S/H824Y/L452V/L825P/L872Q/P881A/R785Q/R828P/S823G/S856P/S873P/T871A/V766A); experiment: Flow cytometry binding to HEK293T cells transfected with human AXL with mouse ECD; settings: 0.0024-10 μg/mL
T4 construct: aa 1-441); expressed in transfected cells; host or cells: HEK293T

AXL on A431 cells = target: T5, AXL on A431 cells (Homo sapiens, UniProt P30530); experiment: Antibody binding to A431 cells with or without Gas6 pre-incubation
T5 construct: AXL-positive A431 cells were incubated; endogenous in cells; host or cells: A431

[5] = target: T6, human AXL transiently expressed by HEK-293F cells (Homo sapiens, UniProt P30530); experiment: Homogeneous antigen specific screening assay (FMAT); settings: binding to human AXL on HEK-293F cells
T6 construct: HEK-293F cells transiently expressing full length human AXL; expressed in transfected cells; host or cells: HEK-293F

PAXF1657 tumors = experiment: PAXF1657 pancreas cancer PDX model; type: in vivo, NMRI nu/nu mice; settings: dose not stated in the sentence (FIG. 10B, 10C)
Description: Human pancreas tumor tissue was subcutaneously implanted in the left flank of 5-7 weeks old female NMRI nu/nu mice. […] At day of randomization (day 0), the 3 ADCs were dosed intravenously (i.v.) at either 4 mg/kg or 2 mg/kg, and the control group received a single dose of IgG1-b12 (4 mg/kg). Tumor volumes (mm^3) were monitored twice weekly and were calculated from caliper (PLEXX) measurements as: 0.52×(length)×(width)^2.

[6] = target: Gas6 binding to AXL on A431 cells (Homo sapiens, UniProt P30530); experiment: Gas6 binding to A431 cells pre-incubated with AXL antibodies; set-up: endogenous in cells; host or cells: A431; settings: pre-incubation with 10 μg/mL antibody; control antibody b12
Description: Alternatively, A431 cells were pre-incubated with 10 μg/mL AXL antibodies (15 minutes, 4° C.) to assess if the AXL ligand Gas6 could still bind in presence of AXL antibodies. […] After washing three times in PBS/0.1% BSA/0.02% azide, cells were incubated with mouse anti-Gas6 IgG2a (R&D Systems; cat no. MAB885) at 4° C. for 30 min. After washing three times in PBS/0.1% BSA/0.02% azide, cells were incubated with FITC-labelled goat anti-mouse IgG (Dako, Heverlee, Belgium; cat no. F049702) at 4° C. for 30 min in the dark. Next, cells were washed twice in PBS/0.1% BSA/0.02% azide, resuspended in 120 μL PBS/0.1% BSA/0.02% azide and analyzed on a FACS Cantoll (BD Biosciences).
as §1
Therefore, binding of Gas6 to A431 cells that had been pre-incubated with 10 μg/mL AXL antibodies was tested as described in Example 2.

T4 sequence (Q00993 19-888 with the stated changes): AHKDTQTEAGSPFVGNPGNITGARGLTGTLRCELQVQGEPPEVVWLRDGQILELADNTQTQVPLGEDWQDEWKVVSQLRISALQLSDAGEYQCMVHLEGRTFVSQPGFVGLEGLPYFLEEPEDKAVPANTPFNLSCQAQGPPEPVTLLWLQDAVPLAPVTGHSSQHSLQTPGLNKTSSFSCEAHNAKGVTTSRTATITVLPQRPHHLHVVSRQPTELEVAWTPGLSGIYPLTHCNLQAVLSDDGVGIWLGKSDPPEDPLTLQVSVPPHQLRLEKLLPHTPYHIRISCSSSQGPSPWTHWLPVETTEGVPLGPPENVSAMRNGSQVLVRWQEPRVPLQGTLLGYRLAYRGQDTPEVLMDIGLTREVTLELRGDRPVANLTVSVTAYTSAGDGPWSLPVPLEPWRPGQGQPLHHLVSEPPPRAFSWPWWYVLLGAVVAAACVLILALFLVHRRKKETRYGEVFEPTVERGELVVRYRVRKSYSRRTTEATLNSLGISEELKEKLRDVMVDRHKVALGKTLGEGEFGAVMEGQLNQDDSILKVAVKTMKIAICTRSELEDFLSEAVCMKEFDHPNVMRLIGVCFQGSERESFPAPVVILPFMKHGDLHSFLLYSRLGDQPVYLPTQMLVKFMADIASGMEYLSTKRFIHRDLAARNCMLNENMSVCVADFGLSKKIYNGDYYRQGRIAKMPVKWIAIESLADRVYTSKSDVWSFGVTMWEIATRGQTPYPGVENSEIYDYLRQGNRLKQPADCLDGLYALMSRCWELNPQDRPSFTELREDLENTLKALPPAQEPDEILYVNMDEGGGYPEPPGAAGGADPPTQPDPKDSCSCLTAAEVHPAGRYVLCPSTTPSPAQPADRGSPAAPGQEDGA

Molecule	anti-tumor activity (ES0195 tumors)	anti-tumor activity (CV1664 tumors; 20 mg/kg intraperitoneally at day 0 and 7)	induction of ADCC (A431 cells)	internalization of membrane-bound antibody [1]	anti-tumor activity (SKMEL147 tumors)	anti-tumor activity (CV1664 tumors; 4 mg/kg at day 0 and 7)	Kdis [2] [s⁻¹]	Kon [2] [M⁻¹ s⁻¹]	Binding EC50 human AXL Average (s.d.) (human AXL)	Binding EC50 cynomolgus AXL Average (s.d.) [3]	binding to AXL with a mouse ECD [4]	Antibody binding to A431 cells: EC50 w/o Gas6 mean (s.d.) (AXL on A431 cells; no Gas6 pre-incubation)	Antibody binding to A431 cells: EC50 in presence of Gas6 mean (s.d.) (AXL on A431 cells; pre-incubation with 10 μg/mL Gas6)	Maximal binding [5] [Arbitrary units]	anti-tumor activity (PAXF1657 tumors)	Gas6 binding: Maximal binding in presence of AXL antibodies (% of binding in presence of control antibody) [6] [%]
CC(=O)O[C@H]1C(=O)[C@@]2(C)[C@H]([C@H](OC(=O)c3ccccc3)[C@]3(O)C[C@H](OC(=O)[C@H](O)[C@@H](NC(=O)c4ccccc4)c4ccccc4)C(C)=C1C3(C)C)[C@]1(OC(C)=O)CO[C@@H]1C[C@@H]2O [paclitaxel, reference compound]	tumor growth inhibition	induced partial tumor regression														
IgG1-AXL-107: human IgG1,κ anti-AXL antibody, VH SEQ ID NO:1, VL SEQ ID NO:2; Ig1 domain binding			did not induce significant ADCC	internalize	did not show tumor growth inhibition	only induced minor inhibition of tumor growth										
IgG1-AXL-726-M101L: point mutant of IgG1-AXL-726, VH SEQ ID NO:32, VL SEQ ID NO:33 (antibody, V domains shown, homo sapiens) VH: QVQLQQWGAGLLKPSETLSLTCAIDGGSFSGYYWSWIRQPPGKGLEWIGEISHSGRTNYNPSLKSRVTISIDTSKNQFSLKLSSVAAADTAVYYCARFITLIRGAIITHFDYWGQGALVTVSS VL: DIQMTQSPSSLSASVGDRVTITCRASQGISSWLAWYQQKPEKAPKSLIYAASSLQSGVPSRFSGSGSGTDFTLTISSLQPEDFATYYCQQYHSYPYTFGQGTKLEIK			did not induce significant ADCC	internalize			6.9e-05	210000	0.184 (0.117) μg/mL	0.250 (0.066) μg/mL	not detectable					
IgG1-AXL-148: human IgG1,κ anti-AXL antibody, VH SEQ ID NO:5, VL SEQ ID NO:6; Ig2 domain binding (antibody, V domains shown, homo sapiens) VH: EVQLLESGGGLVQPGGSLRLSCAASGFTFSSYAMTWVRQAPGKGLEWVSAISISGGSTFYADSVKGRFTISRDNSKNTLYLQMNSLRAEDTAVYYCRGYSGYVYDAFDFWGQGTMVTVSS VL: DIQMTQSPSSLSASVGDRVTITCRASQGISNWLAWYQQKPEKAPKSLIYAASSLQSGVPSRFSGSGSGTDFTLTISSLQPEDFATYYCQQYNSYPLTFGGGTKVEIK			did not induce significant ADCC	internalize			0.0044	230000	0.094 (0.059) μg/mL	0.152 (0.080) μg/mL	not detectable	0.11 (0.13) μg/mL	0.20 (0.30) μg/mL	3499	did not result in anti-tumor activity	106
